From US20240034785A1, “RXR-ALPHA BINDERS AND RXR-ALPHA/PLK1 MODULATORS” (NUCMITO PHARMACEUTICALS CO. LTD., priority 2020, published 2024) come the findings set out here.

Assay [1] addresses T1, polo-like kinase 1 (PLK1), full-length (human, UniProt P53350 1-603).
T1 construct: Endogenous, FLAG-tagged and His-tagged forms are merged here; also called FLAG-PLK1; Flag-PLK1
Briefly: CoIP of FLAG-PLK1 with Myc-RXRα mutants in HeLa cells (FIG. 27).

For assay [2], the target named is T2, regular 55 kDa RXRα (unmodified form) (human, UniProt P19793 1-462).
T2 construct: Non-shifted band of RXRα; Endogenous and tagged (Myc, FLAG, GST) forms are merged; also called regular RXRα; GST-RXRα (not phosphorylated)
T2 sequence: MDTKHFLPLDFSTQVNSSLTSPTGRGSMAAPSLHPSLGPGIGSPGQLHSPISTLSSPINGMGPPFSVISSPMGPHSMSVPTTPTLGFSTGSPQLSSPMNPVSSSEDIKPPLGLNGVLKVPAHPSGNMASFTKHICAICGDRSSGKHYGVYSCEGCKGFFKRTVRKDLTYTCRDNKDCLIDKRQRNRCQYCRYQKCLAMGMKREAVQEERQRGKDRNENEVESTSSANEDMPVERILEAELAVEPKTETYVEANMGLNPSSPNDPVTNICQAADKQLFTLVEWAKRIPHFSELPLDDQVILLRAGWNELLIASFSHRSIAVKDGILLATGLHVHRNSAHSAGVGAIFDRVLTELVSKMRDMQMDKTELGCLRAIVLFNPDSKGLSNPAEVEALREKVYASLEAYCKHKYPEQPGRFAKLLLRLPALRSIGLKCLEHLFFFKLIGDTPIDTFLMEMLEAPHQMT
Briefly: co-immunoprecipitation from HeLa cells (IP: FLAG, WB: Myc).

Assay [3] concerns the target T3, modified (phosphorylated) RXRα, mobility-shifted form (human, UniProt P19793 1-462, phosphoserine at 56 (as in SEQ ID NO: 1) and phosphoserine at 70 (MS/MS)).
T3 construct: Cdk1-phosphorylated form with reduced mobility on SDS-PAGE; Endogenous and Myc-, FLAG-, GST-tagged forms are merged; also called m-RXRα; p-RXRα
T3 sequence: T2 sequence
Briefly: CoIP of PLK1-KD or PLK1-PBD with RXRα in HeLa cells (FIG. 6).

Numbering of substitutions follows the chain as printed. In names and notes the source's numbering stands.

T1 sequence (P53350 whole entry): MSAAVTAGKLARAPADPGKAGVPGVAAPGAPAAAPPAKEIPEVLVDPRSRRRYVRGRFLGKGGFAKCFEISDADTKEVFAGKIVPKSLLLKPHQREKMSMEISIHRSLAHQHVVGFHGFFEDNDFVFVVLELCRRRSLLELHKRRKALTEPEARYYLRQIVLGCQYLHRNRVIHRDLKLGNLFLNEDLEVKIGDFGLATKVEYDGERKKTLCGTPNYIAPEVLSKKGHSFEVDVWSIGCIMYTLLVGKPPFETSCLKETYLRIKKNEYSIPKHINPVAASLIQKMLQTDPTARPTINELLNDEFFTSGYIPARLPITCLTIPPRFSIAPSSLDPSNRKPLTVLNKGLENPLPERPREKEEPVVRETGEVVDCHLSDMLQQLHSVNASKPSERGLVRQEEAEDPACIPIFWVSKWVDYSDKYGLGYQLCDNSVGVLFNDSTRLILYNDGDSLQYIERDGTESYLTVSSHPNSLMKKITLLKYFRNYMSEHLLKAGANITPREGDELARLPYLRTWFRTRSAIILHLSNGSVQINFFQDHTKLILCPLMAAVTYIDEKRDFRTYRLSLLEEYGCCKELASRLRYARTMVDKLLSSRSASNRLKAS

B1: RXRα-S56A/S70A (RXRα-2A) (receptor)
chain: T2 sequence with S56A, S70A
notes: Myc-tagged (CoIP) and GST-fused (kinase assay) forms are merged; also called RXR-S56A/S70A(2A); GST-RXRα-2A
On to B1, for which the binding result in assay [1] is “no binding”.

B2: PLK1-KD (N-terminal kinase domain of PLK1) (enzyme, UniProt P53350 1-326, looked up)
chain: MSAAVTAGKLARAPADPGKAGVPGVAAPGAPAAAPPAKEIPEVLVDPRSRRRYVRGRFLGKGGFAKCFEISDADTKEVFAGKIVPKSLLLKPHQREKMSMEISIHRSLAHQHVVGFHGFFEDNDFVFVVLELCRRRSLLELHKRRKALTEPEARYYLRQIVLGCQYLHRNRVIHRDLKLGNLFLNEDLEVKIGDFGLATKVEYDGERKKTLCGTPNYIAPEVLSKKGHSFEVDVWSIGCIMYTLLVGKPPFETSCLKETYLRIKKNEYSIPKHINPVAASLIQKMLQTDPTARPTINELLNDEFFTSGYIPARLPITCLTIPPRFS
notes: domain: kinase domain (KD)
In the case of B2, the binding result in assay [2] and in assay [3] was “no binding” in each case.
